The target in this assay is Human EGFRvIII extracellular domain (ECD) C-terminal His-tagged protein (Homo sapiens, deletion of amino acids 6 to 273). The experiment in a line: BLI.

One may read the Kd as the equilibrium constant for the complex coming apart. The low end stands for a tighter complex, the high end for a looser complex.

B1: monoclonal antibody 40H3 (antibody, V domains shown)
VH: QVQLKQSGPGLVQPSQSLSITCTVSGFSLTNYGIHWLRQSPGKGLEWLGMMWRGGGTDYNAAFISRLTITKDTSKSQVFFRMNNLQTNDTAIYYCARKGVGMGLGYWGQGTSVTVSS
VL: DIQMTQSPASQSASLGESVTITCLASQTIGTWVAWYQQKPGRSPQLLIYGATNLADGVPSRFSGSGSGTKFSFKISSLQAEDFVSYYCQQLYSNPYTFGGGTKLEIK
B1 displayed a Kd of about 0.27 nM.

Values taken from paper PMC6947844 (Antibody therapeutics, 2019).
